Assay results taken from patent publication JP2001526021A.

Target: ブラジキニン受容体 (bradykinin receptor) on SV-T2 cells
Assay: cell-based or functional assay

## ブラジキニン (bradykinin) (peptide)
  PGE2合成 (PGE2 synthesis in SV-T2 cells, ELISA): 4 倍 (fold)
  PGE2合成 (PGE2 synthesis in SV-T2 cells, Fig. 7C): 4 倍 (fold)
